From patent US20180155451A1 (published 2018)

T1: FcγRIIb (human, UniProt P31994 43-217)
T1 construct: extracellular domain; Soluble extracellular domain with C-terminal His tag, used as analyte in Biacore; also called FcgRIIb; 2b; not shown: His tag attached to the C terminus
T1 sequence (looked up): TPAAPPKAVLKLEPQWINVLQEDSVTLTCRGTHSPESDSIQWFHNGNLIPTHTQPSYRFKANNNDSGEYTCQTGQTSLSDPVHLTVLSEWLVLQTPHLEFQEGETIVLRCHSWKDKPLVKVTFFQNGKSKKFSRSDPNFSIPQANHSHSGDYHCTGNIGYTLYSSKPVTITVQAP


Experiments:
[1] = target: T1, FcγRIIb; test: SPR (Biacore), antibody captured on antigen peptide, FcγR as analyte; relative to GpH7-A5/GpH7-B3/GpL16-k0 = 100
[2] = target: T2, FcγRIa (human, UniProt P12314 16-292); test: as above
T2 construct: extracellular domain; Soluble extracellular domain with C-terminal His tag, used as analyte in Biacore; also called FcgRI; 1a; not shown: His tag attached to the C terminus
T2 sequence (P12314 16-292): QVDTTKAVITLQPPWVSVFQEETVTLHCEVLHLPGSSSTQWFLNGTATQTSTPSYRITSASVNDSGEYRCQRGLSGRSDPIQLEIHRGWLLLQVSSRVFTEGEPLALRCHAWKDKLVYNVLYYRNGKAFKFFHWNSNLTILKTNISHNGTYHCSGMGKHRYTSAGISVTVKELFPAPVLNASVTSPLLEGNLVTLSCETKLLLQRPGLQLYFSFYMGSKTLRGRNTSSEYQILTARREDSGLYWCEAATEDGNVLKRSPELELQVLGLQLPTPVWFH

[3] = target: T2, FcγRIa; test: SPR (Biacore); He/Con_1a divided by He/Con_2b (FcγRIa against FcγRIIb)

Row | Binder | He/Con_2b [1] | He/Con_1a [2] | Ia/IIb He_1a/2b [3] [ratio]
1 | GpH7-A5/GpH7-B3 variant G237_10E/GpL16-k0 (antibody, human IgG1, kappa, Heterodimerized IgG1; mutation in the GpH7-B3 H chain only; also called He Ab) heavy 1: not shown heavy 2: not shown light: DIVMTQSPLSLPVTPGEPASISCQASESLVHSNRNTYLHWYLQKPGQSPQLLIYKVSNRFSGVPDRFSGSGSGTDFTLKISRVEAEDVGVYYCSQNTHVPPTFGQGTKVEIERTVAAPSVFIFPPSDEQLKSGTASVVCLLNNFYPREAKVQWKVDNALQSGNSQESVTEQDSKDSTYSLSSTLTLSKADYEKHKVYACEVTHQGLSSPVTKSFNRGEC | 114 % of control | 75.1 % of control | 0.66
2 | GpH7-A5/GpH7-B3 variant G237_19Q/GpL16-k0 (antibody, human IgG1, kappa, Heterodimerized IgG1; mutation in the GpH7-B3 H chain only; also called He Ab) heavy 1: not shown heavy 2: not shown light: DIVMTQSPLSLPVTPGEPASISCQASESLVHSNRNTYLHWYLQKPGQSPQLLIYKVSNRFSGVPDRFSGSGSGTDFTLKISRVEAEDVGVYYCSQNTHVPPTFGQGTKVEIERTVAAPSVFIFPPSDEQLKSGTASVVCLLNNFYPREAKVQWKVDNALQSGNSQESVTEQDSKDSTYSLSSTLTLSKADYEKHKVYACEVTHQGLSSPVTKSFNRGEC | 108 % of control | 82.8 % of control | 0.77
3 | GpH7-A5/GpH7-B3 variant H268_01G/GpL16-k0 (antibody, human IgG1, kappa, Heterodimerized IgG1; mutation in the GpH7-B3 H chain only; also called He Ab) heavy 1: not shown heavy 2: not shown light: DIVMTQSPLSLPVTPGEPASISCQASESLVHSNRNTYLHWYLQKPGQSPQLLIYKVSNRFSGVPDRFSGSGSGTDFTLKISRVEAEDVGVYYCSQNTHVPPTFGQGTKVEIERTVAAPSVFIFPPSDEQLKSGTASVVCLLNNFYPREAKVQWKVDNALQSGNSQESVTEQDSKDSTYSLSSTLTLSKADYEKHKVYACEVTHQGLSSPVTKSFNRGEC | 144 % of control | 107 % of control | 0.75
4 | GpH7-A5/GpH7-B3 variant H268_02A/GpL16-k0 (antibody, human IgG1, kappa, Heterodimerized IgG1; mutation in the GpH7-B3 H chain only; also called He Ab) heavy 1: not shown heavy 2: not shown light: DIVMTQSPLSLPVTPGEPASISCQASESLVHSNRNTYLHWYLQKPGQSPQLLIYKVSNRFSGVPDRFSGSGSGTDFTLKISRVEAEDVGVYYCSQNTHVPPTFGQGTKVEIERTVAAPSVFIFPPSDEQLKSGTASVVCLLNNFYPREAKVQWKVDNALQSGNSQESVTEQDSKDSTYSLSSTLTLSKADYEKHKVYACEVTHQGLSSPVTKSFNRGEC | 167 % of control | 109 % of control | 0.65

Continued, values first:

Row | He/Con_2b [1] | He/Con_1a [2] | Ia/IIb He_1a/2b [3] [ratio] | Binder
5 | 180 % of control | 82.5 % of control | 0.46 | GpH7-A5/GpH7-B3 variant G237_18N/GpL16-k0 (antibody, human IgG1, kappa, Heterodimerized IgG1; mutation in the GpH7-B3 H chain only; also called He Ab) heavy 1: not shown heavy 2: not shown light: DIVMTQSPLSLPVTPGEPASISCQASESLVHSNRNTYLHWYLQKPGQSPQLLIYKVSNRFSGVPDRFSGSGSGTDFTLKISRVEAEDVGVYYCSQNTHVPPTFGQGTKVEIERTVAAPSVFIFPPSDEQLKSGTASVVCLLNNFYPREAKVQWKVDNALQSGNSQESVTEQDSKDSTYSLSSTLTLSKADYEKHKVYACEVTHQGLSSPVTKSFNRGEC
6 | 193 % of control | 78.4 % of control | 0.41 | GpH7-A5/GpH7-B3 variant G237_20W/GpL16-k0 (antibody, human IgG1, kappa, Heterodimerized IgG1; mutation in the GpH7-B3 H chain only; also called He Ab) heavy 1: not shown heavy 2: not shown light: DIVMTQSPLSLPVTPGEPASISCQASESLVHSNRNTYLHWYLQKPGQSPQLLIYKVSNRFSGVPDRFSGSGSGTDFTLKISRVEAEDVGVYYCSQNTHVPPTFGQGTKVEIERTVAAPSVFIFPPSDEQLKSGTASVVCLLNNFYPREAKVQWKVDNALQSGNSQESVTEQDSKDSTYSLSSTLTLSKADYEKHKVYACEVTHQGLSSPVTKSFNRGEC
7 | 239 % of control | 110 % of control | 0.46 | GpH7-A5/GpH7-B3 variant H268_09D/GpL16-k0 (antibody, human IgG1, kappa, Heterodimerized IgG1; mutation in the GpH7-B3 H chain only; also called He Ab) heavy 1: not shown heavy 2: not shown light: DIVMTQSPLSLPVTPGEPASISCQASESLVHSNRNTYLHWYLQKPGQSPQLLIYKVSNRFSGVPDRFSGSGSGTDFTLKISRVEAEDVGVYYCSQNTHVPPTFGQGTKVEIERTVAAPSVFIFPPSDEQLKSGTASVVCLLNNFYPREAKVQWKVDNALQSGNSQESVTEQDSKDSTYSLSSTLTLSKADYEKHKVYACEVTHQGLSSPVTKSFNRGEC
8 | 152 % of control | 79.6 % of control | 0.52 | GpH7-A5/GpH7-B3 variant G237_15Y/GpL16-k0 (antibody, human IgG1, kappa, Heterodimerized IgG1; mutation in the GpH7-B3 H chain only; also called He Ab) heavy 1: not shown heavy 2: not shown light: DIVMTQSPLSLPVTPGEPASISCQASESLVHSNRNTYLHWYLQKPGQSPQLLIYKVSNRFSGVPDRFSGSGSGTDFTLKISRVEAEDVGVYYCSQNTHVPPTFGQGTKVEIERTVAAPSVFIFPPSDEQLKSGTASVVCLLNNFYPREAKVQWKVDNALQSGNSQESVTEQDSKDSTYSLSSTLTLSKADYEKHKVYACEVTHQGLSSPVTKSFNRGEC
